According to patent US20170088610A1:

Key:
[1] = target: human nerve growth factor (human), P01138
[2] = target: human nerve growth factor (human), P01138; remark: listed apart in the source
[3] = target: human nerve growth factor (human), P01138; assay: cell-based or functional assay

human nerve growth factor (human), P01138, sequence (P01138 122-241 limits assumed): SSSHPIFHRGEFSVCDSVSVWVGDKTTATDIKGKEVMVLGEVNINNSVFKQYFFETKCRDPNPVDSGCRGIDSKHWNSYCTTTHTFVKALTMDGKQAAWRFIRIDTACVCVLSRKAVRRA

B1: antibody E3 (full antibody) (antibody, human IgG2, kappa)
heavy: QVQLQESGPGLVKPSETLSLTCTVSGFSLIGYDLNWIRQPPGKGLEWIGIIWGDGTTDYNSAVKSRVTISKDTSKNQFSLKLSSVTAADTAVYYCARGGYWYATSYYFDYWGQGTLVTVSSASTKGPSVFPLAPCSRSTSESTAALGCLVKDYFPEPVTVSWNSGALTSGVHTFPAVLQSSGLYSLSSVVTVPSSNFGTQTYTCNVDHKPSNTKVDKTVERKCCVECPPCPAPPVAGPSVFLFPPKPKDTLMISRTPEVTCVVVDVSHEDPEVQFNWYVDGVEVHNAKTKPREEQFNSTFRVVSVLTVVHQDWLNGKEYKCKVSNKGLPSSIEKTISKTKGQPREPQVYTLPPSREEMTKNQVSLTCLVKGFYPSDIAVEWESNGQPENNYKTTPPMLDSDGSFFLYSKLTVDKSRWQQGNVFSCSVMHEALHNHYTQKSLSLSPGK
light: not shown
modifications: not checked
IC50 (read off the curve), NGF-dependent survival of E13.5 mouse trigeminal neurons (0.4 ng/ml human NGF, 48 h) (nM binding sites) [1]: 0.02
IC50 (read off the curve), NGF-dependent survival of E13.5 trigeminal neurons (0.4 ng/ml human NGF, 48 h) [2]: 8 pM
NGF-elicited survival of E17/18 trigeminal neurons [3]: 20 nM
